Like-named read-outs stand apart in the source and are kept apart here.

In one data set the test system is Human heart. The data set is classed as biochemical. The settings on record: Table 34; Human heart; 1 mg/ml, acidized homogenate; Docetaxel release by HPLC.
Data set [1] relates to Human fibrosarcoma HT-1080 tumor tissue homogenate. The data set is classed as biochemical. As to conditions: Human fibrosarcoma HT-1080, 1 mg/ml, 100 μg acidized homogenate. In short, it runs like this: (§1)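 Activation efficiency by tissue proteases is the read-out. Each sample compound, at 1 mg/ml, was incubated with 100 μg of acid-treated homogenate at pH6.0 and 37° C.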
The nature of data set [2]: Solubility / formulation test in solvent 1 and solvent 2. The data set is classed as physicochemical. The protocol: In Table 11, AAN, AANL and AANK indicate the linkage formed by small peptides in the compounds, A is Ala, N is Asn, L is Leu and K is Lys. […] The dissolution concentration is 10 mg/ml.
B1, B2, B3 and B4 and various control compounds were dried under vacuum, sterilized via gas sterilization, and separately packing in a sterile room. Before animal test, B1, B2, B3 and B4 were dissolved by solvent 1 (injectable water) or solvent 2 (30% alcohol, 70% injectable water) and diluted by injectable water to the desired concentration in sterile room. […] Change in solubility may greatly affect the formulation scheme of a drug.
D1, D2, D3, D4 and various control compounds were dried under vacuum, sterilized via gas sterilization, and separately packing in a sterile room. […] Change in solubility may greatly affect the formulation scheme of a drug.

Data set [3] has as its system Human prostate cancer PC-3 cells / Panc-1 cells. Description: Tumor treatment in nude mice (PC-3 cells purchased, Panc-1 cells injected; Examples 22, 32, 42). The data set is classed as in vivo. In short, it runs like this: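 Nude mice bearing subcutaneous Panc-1 xenografts (5×10^6 cells on the back) were randomized once tumors reached at least 100 mm^3. Drugs were given intravenously once weekly for four weeks, with saline controls. PC-3 cells were grown in DMEM/10% FBS and used within passage 15.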

In a further data set the test system is 4T1 cells. Briefly: BALB/C mice model for tumor metastasis (4T1, lung metastases). The data set is classed as in vivo. As to conditions: for Inhibitory effect on tumor metastasis, in words: compared with parent drug group and control group. In short, it runs like this: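 10^6 4T1 cells (DMEM, 10% FBS, within passage 15) injected subcutaneously into the back of BALB/C mice; primary tumor resected at about 1.5 cm, then dosing began. Drugs given IV once every three days, 4 times; saline controls. Lungs removed day 27, Bouin's-stained, metastases counted under anatomical microscope.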

Data set [4] concerns Human ovarian cancer SK-OV-3. Briefly: Multiple tumor models in nude mice: SK-OV-3. The data set is classed as in vivo. The procedure:
1) Corresponding tumor cells were purchased from American type culture collection (ATCC) and identified according the specification provided by ATCC. Cells were cultivated in DMEM culture solution containing 10% fetal bovine serum at 37° C. and 5% CO2. The cells were passaged for every three days and cells within the 15th passage were used.
2) Production of tumor. 5×10^6 corresponding cells were subcutaneously injected to the back of the nude mice. Mice were randomly grouped after the tumor reached at least 100 mm^3. Then treatment began and the day on which the treatment began was day 1.
(§2) 3) Course of treatment. […] The control group was administered by physiological saline. Animals were administered once weekly for three weeks.
3) Course of treatment. According to the clinical application of A1, A1 was administered in a dose of ⅙ MTD, i.v., 17.6 μmol/kg. The control group was administered by physiological saline. Animals were administered once weekly for three weeks.
3) Course of treatment. According to the clinical application of B1, B1 was administered in a dose of ⅙ MTD, i.v., 17.6 μmol/kg. The control group was administered by physiological saline. Animals were administered once weekly for three weeks.
as §2, §2

The subject of a further data set is BALB/C mice. Description: Maximum tolerated dose (MTD) / acute toxicity by single intravenous injection. The settings on record: for MTD (maximum tolerated dose): BALB/C mice, intravenous injection, one time.
The next data set relates to tumor tissue homogenates. The data set is classed as biochemical. In short, it runs like this: as §1
Setting [5] is: Table 38, nude mice, IV once weekly for four weeks, B1-B4 25 mg/kg, Docetaxel […], Day 10.
Setting [6] is: Table 38, nude mice, IV once weekly for four weeks, B1-B4 25 mg/kg, Docetaxel […], Day 24.
Setting [7] is: Table 40, BALB/C mice, 4T1, lung metastases day 27, IV every three days for 4 times, B1-B4 17.6 μmol/kg, Docetaxel 3 μmol/kg.
Where [8] appears, read: single intravenous injection, 125 mg/kg, 10 BALB/C mice per group.
[9] abbreviates: single intravenous injection, 150 mg/kg, 10 BALB/C mice per group.
Where [10] appears, read: single intravenous injection, 175 mg/kg, 10 BALB/C mice per group.
The mark [11] stands for this setting: single intravenous injection, 200 mg/kg, 10 BALB/C mice per group.
Setting [12] is: Table 50, BALB/C mice, 4T1, lung metastases day 27, IV every three days for 4 times, D1-D4 25 mg/kg, Docetaxel 4.2 mg/kg.

For the molecule `COCCOCC(=O)NCCCC[C@H](NC(=O)COCCOC)C(=O)N[C@H](C)C(=O)N[C@H](C)C(=O)N[C@H](CC(N)=O)C(=O)Nc1ccc(COC(=O)OC(C(=O)OC2C[C@@]3(O)[C@@H](OC(=O)c4ccccc4)[C@H]4[C@](C)(C(=O)[C@H](O)C(=C2C)C3(C)C)[C@@H](O)CC2OC[C@]24OC(C)=O)[C@@H](NC(=O)OC(C)(C)C)c2ccccc2)cc1` (stereo partly shown) [Compound B1], in the data set on Human heart, the “activation efficiency (%)” value was found to be 12.2%. In addition, the “activation efficiency (%)” value in data set [1] (Table 34, Docetaxel release by HPLC) was 79.1%. The “solubility in Solvent 1” value in data set [2] (solvent 1 (injectable water), Table 33, water-soluble Docetaxel series) is reported as “insoluble”. Further, the “solubility in Solvent 2” value in data set [2] (solvent 2 (30% alcohol, 70% injectable water), Table 33, water-soluble Docetaxel series) is reported as “soluble”. For the same molecule, in data set [3] (setting [5]), the “Size of tumor (mm^3) Day 10” value is on record as 92.4 ± 59.66 mm^3 and the “inhibitory rate on tumor Day 10” value was found to be 67.8. Further, in data set [3] (setting [6]), the “Size of tumor (mm^3) Day 24” value came to 128.45 ± 105.56 mm^3 and the “inhibitory rate on tumor Day 24” value was determined as 66.3. Besides, the “Inhibition on tumor growth, in words” value in data set [3] (compared with parent drug group (same molar concentration) and control group) was “greatly improved”. Further, in the data set with 4T1 cells (setting [7]), the “Inhibitory rate on metastasis” value was 96.0 and the “Number of metastasized tumor” value stood at 5 ± 3. For the same molecule, the “Inhibitory effect on tumor metastasis, in words” value (“Inhibitory effect” for short) with 4T1 cells is listed as “greatly improved”. Also, the “inhibitory rate on tumor (Day 26)” value in data set [4] (Table 41, i.v. 17.6 μmol/kg once weekly for three weeks) came to 74.67%. For the same molecule, the “Behaviors and death observed” value in the data set with BALB/C mice (BALB/C mice receiving 175 mg/kg injection) was “no pilo-erection, hair tousle and lackluster, lethargy, stoop, irritable reaction and death”. The “MTD (maximum tolerated dose)” value in the data set on BALB/C mice was “about 150 mg/kg”. In addition, in the data set on BALB/C mice (setting [8]), the “Mortality rate (%)” value worked out at 0% and the “Number of dead animal” value was determined as 0. Besides, in the data set with BALB/C mice (setting [9]), the “Mortality rate (%)” value is 0% and the “Number of dead animal” value came to 0. Further, in the data set with BALB/C mice (setting [10]), the “Mortality rate (%)” value worked out at 0% and the “Number of dead animal” value was found to be 0. For the same molecule, in the data set on BALB/C mice (setting [11]), the “Mortality rate (%)” value is 20% and the “Number of dead animal” value is recorded as 2.

With `COCCOCC(=O)N[C@H](C)C(=O)N[C@H](C)C(=O)N[C@H](CC(N)=O)C(=O)Nc1ccc(COC(=O)OC(C(=O)OC2C[C@@]3(O)[C@@H](OC(=O)c4ccccc4)[C@H]4[C@](C)(C(=O)[C@H](O)C(=C2C)C3(C)C)[C@@H](O)CC2OC[C@]24OC(C)=O)[C@@H](NC(=O)OC(C)(C)C)c2ccccc2)cc1` (stereo partly drawn) [Compound D1, 2-(2-methoxyethoxy) acetyl-L-Ala-L-Ala-L-Asn-4-amino benzyl-Docetaxel], in data set [1] (Table 45, Docetaxel release by HPLC), the “Activation ratio (%) in homogenates from different tumor tissues” value is listed as 77.23%. Moreover, in the data set on tumor tissue homogenates, the “Activation efficiency by tumor tissue, in words” value is reported as “highest activation efficiency”. Besides, the “solubility in Solvent 1” value in data set [2] (Table 44, second column (head repeats Solvent 1), text: solvent 2 (45% alcohol, 55% injectable water)) is recorded as “soluble”; in data set [2] (solvent 1 (injectable water), Table 44, first column, Docetaxel D series), “insoluble”. Also, the “Inhibitory rate on metastasis” value in the data set on 4T1 cells (setting [12]) stood at 95.2. Further, the “Number of metastasized tumor” value in the data set on 4T1 cells (setting [12]) was 5 ± 3. In the data set with 4T1 cells, the “Inhibitory effect” value is given as “greatly improved”. The “inhibitory rate on tumor (Day 26)” value in data set [4] (Table 51, 25 mg/kg once weekly for three weeks) was found to be 82.9%. Besides, the “Behaviors and death observed” value in the data set on BALB/C mice (BALB/C mice receiving 150 mg/kg injection) was “no pilo-erection, hair tousle and lackluster, lethargy, stoop, irritable reaction and death”. Further, in the data set on BALB/C mice, the “MTD (maximum tolerated dose)” value was “about 150 mg/kg”. Further, the “Mortality rate (%)” value with BALB/C mice (setting [8]) turned out to be 0%; in the data set on BALB/C mice (setting [9]), 0%; in the data set on BALB/C mice (setting [10]), 0%; in the data set with BALB/C mice (setting [11]) it was 10%. In addition, the “Number of dead animal” value was found to be 0 in the data set on BALB/C mice (setting [8]), 0 in the data set with BALB/C mice (setting [9]), 0 with BALB/C mice (setting [10]) and 1 in the data set on BALB/C mice (setting [11]).

For `COCCOCC(=O)N[C@H](C)C(=O)N[C@H](C)C(=O)N[C@H](CC(N)=O)C(=O)Nc1ccc(COC(=O)N2[C@@H]3CN4C5=C(C(=O)C(N)=C(C)C5=O)[C@H](COC(N)=O)[C@]4(OC)[C@@H]32)cc1` [Compound E1, 2-(2-methoxyethoxy) acetyl-L-Ala-L-Ala-L-Asn-4-amino benzyl mitomycin], the “Activation ratio (%) in homogenates from different tumor tissues” value in data set [1] (37° C.) turned out to be 83.6%. For the same molecule, in the data set with 4T1 cells, the “Inhibitory effect” value is “greatly improved”. Also, the “Inhibitory rate on metastasis” value in the data set with 4T1 cells (day 27, IV once every three days for 4 times, E1-E4 15 mg/kg, mitomycin 1 mg/kg) was found to be 99.2%. The “Number of metastasized tumor” value in the data set with 4T1 cells (lung metastases counted on day 27, IV once every three days for 4 times, E1-E4 15 mg/kg, mitomycin 1 mg/kg) is recorded as 2 ± 3. In addition, the “inhibitory rate on tumor (Day 26)” value in data set [4] (15 mg/kg once weekly for three weeks, Day 26) is 84.5%. Further, the “Mortality rate (%)” value worked out at 0% in the data set on BALB/C mice (50 mg/kg single IV injection, 10 BALB/C mice); 0% with BALB/C mice (70 mg/kg single IV injection, 10 BALB/C mice); 0% in the data set on BALB/C mice (90 mg/kg single IV injection, 10 BALB/C mice); 10% with BALB/C mice (110 mg/kg single IV injection, 10 BALB/C mice). Moreover, the “Number of dead animal” value in the data set on BALB/C mice (50 mg/kg single IV injection, 10 BALB/C mice, observed 17 days) stood at 0; with BALB/C mice (70 mg/kg single IV injection, 10 BALB/C mice, observed 17 days), 0; with BALB/C mice (90 mg/kg single IV injection, 10 BALB/C mice, observed 17 days) it was 0; with BALB/C mice (110 mg/kg single IV injection, 10 BALB/C mice, observed 17 days), 1. Besides, in the data set on BALB/C mice (BALB/C mice receiving 90 mg/kg injection), the “Behaviors and death observed” value was “no pilo-erection, hair tousle and lackluster, lethargy, stoop, irritable reaction and death”.

(Values after patent US10682371B2, “Small molecule conjugates specifically activated in tumor microenvironment for targeting and use thereof” (priority 2014, dated 2020).)
